Assay results taken from patent US20180194839A1 (Novartis, published 2018).
Changes are numbered by the printed parent chain. Names and notes keep the numbering of the source.

Key:
[1] = target: T1, recombinant human IL-8 (R&D Systems Cat#208-IL-010/CF) (human, UniProt P10145 28-99); assay: ELISA, coated cytokine;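 also: antibodies incubated 3 h at room temperature on cytokine-coated plates, binding read out with alkaline phosphatase-conjugated anti-species IgG secondary antibodies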
T1 construct: also called huIL-8
T1 sequence (looked up): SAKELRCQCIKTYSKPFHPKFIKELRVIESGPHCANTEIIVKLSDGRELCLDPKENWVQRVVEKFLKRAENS

[2] = target: T2, recombinant human IFNγ (Roche) (human, UniProt P01579 24-166, limits assumed); assay: ELISA, coated cytokine;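 also: antibodies incubated 3 h at room temperature on cytokine-coated plates, binding read out with alkaline phosphatase-conjugated anti-species IgG secondary antibodies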
T2 construct: also called huIFNγ
T2 sequence (looked up): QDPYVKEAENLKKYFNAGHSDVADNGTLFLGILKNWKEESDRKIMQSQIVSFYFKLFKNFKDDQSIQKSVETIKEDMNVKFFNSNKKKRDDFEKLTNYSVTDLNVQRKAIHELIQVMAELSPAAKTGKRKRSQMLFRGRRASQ

[3] = target: T3, recombinant rat TNFα (R&D Systems Cat#510-RT/CF) (rat, UniProt P16599 80-235); assay: ELISA, coated cytokine;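 also: antibodies incubated 3 h at room temperature on cytokine-coated plates, binding read out with alkaline phosphatase-conjugated anti-species IgG secondary antibodies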
T3 sequence (looked up): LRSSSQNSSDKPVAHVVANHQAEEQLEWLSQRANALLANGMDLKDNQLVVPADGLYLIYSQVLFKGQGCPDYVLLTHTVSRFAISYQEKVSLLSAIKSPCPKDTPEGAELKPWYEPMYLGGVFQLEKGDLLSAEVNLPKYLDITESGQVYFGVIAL

[4] = target: T4, recombinant mouse IL-6 (R&D Systems Cat#406-ML-010/CF) (mouse, UniProt P08505 25-211); assay: ELISA, coated cytokine;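 also: antibodies incubated 3 h at room temperature on cytokine-coated plates, binding read out with alkaline phosphatase-conjugated anti-species IgG secondary antibodies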
T4 construct: coated at 0.5 µg/ml; also called mIL-6
T4 sequence (looked up): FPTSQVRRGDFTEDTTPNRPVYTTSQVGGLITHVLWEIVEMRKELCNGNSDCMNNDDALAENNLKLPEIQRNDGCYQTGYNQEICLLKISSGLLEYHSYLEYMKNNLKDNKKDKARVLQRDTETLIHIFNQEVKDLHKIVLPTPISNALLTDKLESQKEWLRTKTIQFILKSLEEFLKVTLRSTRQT

[5] = target: T5, recombinant human IL-17A (SEQ ID NO: 76) (human, UniProt Q16552 24-155, limits assumed); assay: cell-based or functional assay
T5 sequence: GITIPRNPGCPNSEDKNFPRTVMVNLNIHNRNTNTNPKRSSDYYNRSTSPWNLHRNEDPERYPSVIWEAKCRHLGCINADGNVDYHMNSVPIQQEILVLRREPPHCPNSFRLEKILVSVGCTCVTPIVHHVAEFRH

[6] = target: T6, recombinant human IL-17A/F heterodimer (human, UniProt Q16552 24-155; Q96PD4 31-163, limits assumed); assay: cell-based or functional assay
T6 sequence (looked up) 1: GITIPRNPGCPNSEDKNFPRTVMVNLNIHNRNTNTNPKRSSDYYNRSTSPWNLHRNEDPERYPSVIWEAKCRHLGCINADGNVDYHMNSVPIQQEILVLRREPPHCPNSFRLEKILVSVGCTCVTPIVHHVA
T6 sequence (looked up) 2: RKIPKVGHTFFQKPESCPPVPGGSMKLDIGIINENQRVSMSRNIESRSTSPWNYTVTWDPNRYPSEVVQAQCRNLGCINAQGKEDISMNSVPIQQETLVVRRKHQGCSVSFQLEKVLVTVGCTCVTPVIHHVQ

[7] = target: T7, recombinant human IL-17F (SEQ ID NO: 77) (human, UniProt Q96PD4 31-163); assay: cell-based or functional assay
T7 sequence: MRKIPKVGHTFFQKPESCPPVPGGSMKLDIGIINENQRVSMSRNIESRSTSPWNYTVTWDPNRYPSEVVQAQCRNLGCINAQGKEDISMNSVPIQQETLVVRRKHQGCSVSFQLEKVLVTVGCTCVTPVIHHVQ

[8] = target: T8, recombinant human IL-17B (R&D Systems) (human, UniProt Q9UHF5 21-180); assay: ELISA, coated antigen
T8 construct: also called huIL-17B; hu IL-17B
T8 sequence (looked up): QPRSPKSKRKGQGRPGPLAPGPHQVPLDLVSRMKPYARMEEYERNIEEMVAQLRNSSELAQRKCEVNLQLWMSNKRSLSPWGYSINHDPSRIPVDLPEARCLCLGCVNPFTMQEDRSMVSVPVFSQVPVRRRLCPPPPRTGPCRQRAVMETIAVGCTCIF

[9] = target: T9, recombinant mouse IL-17F (SEQ ID NO: 84) (mouse, UniProt Q7TNI7 29-161); assay: ELISA, coated antigen
T9 construct: also called mIL-17F; rmIL-17F
T9 sequence: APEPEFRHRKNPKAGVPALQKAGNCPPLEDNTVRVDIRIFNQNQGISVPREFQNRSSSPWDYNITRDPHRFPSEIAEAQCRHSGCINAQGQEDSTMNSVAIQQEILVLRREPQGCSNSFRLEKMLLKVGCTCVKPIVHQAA

[10] = target: T10, recombinant human IL-17D (R&D Systems Cat#1504IL/CF) (human, UniProt Q8TAD2 18-202, limits assumed); assay: ELISA, coated antigen
T10 construct: also called huIL-17D; hu IL-17D
T10 sequence (looked up): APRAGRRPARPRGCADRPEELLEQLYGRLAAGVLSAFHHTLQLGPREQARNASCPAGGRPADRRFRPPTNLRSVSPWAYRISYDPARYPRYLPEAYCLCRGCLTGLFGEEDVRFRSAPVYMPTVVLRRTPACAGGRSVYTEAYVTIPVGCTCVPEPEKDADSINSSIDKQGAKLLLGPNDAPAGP

[11] = target: T11, recombinant human IL-17C (R&D Systems Cat#1234IL/CF) (human, UniProt Q9P0M4 19-197); assay: ELISA, coated antigen
T11 construct: also called huIL-17C; hu IL-17C
T11 sequence (looked up): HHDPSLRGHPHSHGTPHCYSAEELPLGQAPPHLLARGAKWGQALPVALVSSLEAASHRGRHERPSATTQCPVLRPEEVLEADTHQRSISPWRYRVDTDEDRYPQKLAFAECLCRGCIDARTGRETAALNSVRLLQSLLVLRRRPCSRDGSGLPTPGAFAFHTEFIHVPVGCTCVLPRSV

[12] = target: T6, recombinant human IL-17A/F heterodimer; assay: competition ELISA: huIL-17A/F pre-incubated with antibody, binding to coated huIL-17RA
[13] = target: T5, recombinant human IL-17A (SEQ ID NO: 76); assay: cell-based or functional assay; remark: listed apart in the source

B1: XAB4 (antibody, human IgG1, kappa, V domains shown)
VH: EVQLVESGGDLVQPGGSLRLSCAASGFTFSSYWMSWVRQAPGKGLEWVANIKQDGSEKYYVDSVKGRFTISRDNAKNSLYLQMNSLRAEDTAVYYCARDRGSLYYWGQGTLVTVSS
VL: AIQLTQSPSSLSASVGDRVTITCRPSQGINWELAWYQQKPGKAPKLLIYDASSLEQGVPSRFSGSGSGTDFTLTISSLQPEDFATYYCQQFNSYPLTFGGGTKVEIKR
notes: also called MB435 N56Q
B1: no binding (tested: 10 µg/ml) [1]; no binding (tested: 10 µg/ml) [2]; no binding (tested: 10 µg/ml) [3]. For the same binder, the binding result [4] was “no binding (tested: 10 µg/ml)”, the “IC50, hu-GRO-alpha secretion by BJ cells; stimulus IL-17A (30 pM) + TNF-α (6 pM)” value [5] was 7 pM and the “IC50, hu-GRO-alpha secretion by BJ cells; stimulus IL-17A (1 nM)” value [5] was 0.35 nM. For the same binder, the “IC50, hu-GRO-alpha secretion by BJ cells; stimulus IL-17A/F (300 pM) + TNF-α (6 pM)” value [6] was 0.1 nM, the “IC50, hu-GRO-alpha secretion by BJ cells; stimulus IL-17A/F (3 nM)” value [6] was 1.11 nM and the “IC50, hu-GRO-alpha secretion by BJ cells; stimulus IL-17F (10 nM) + TNF-α (6 pM)” value [7] was over 3 µM. For the same binder, the “IC50, hu-GRO-alpha secretion by BJ cells; stimulus IL-17F (30 nM)” value [7] was over 3000 nM, the binding result [8] was “no binding (tested: 1 µg/ml)” and the binding result [9] was “no binding (tested: 1 µg/ml)”. For the same binder, the binding result [10] was “no binding (tested: 1 µg/ml)”, the binding result [11] was “no binding (tested: 1 µg/ml)” and the IC50 [12] was 154 nM. For the same binder, the “IC50, huIL-6 secretion by BJ cells; stimulus rhuIL-17A (0.5 nM)” value [13] was 0.55 nM.

B2: XAB1 (antibody, human IgG1, kappa, V domains shown)
VH: B1 VH
VL: B1 VL with N30I, W31S, E32A, Q56N
notes: human IgG1/kappa monoclonal antibody; also called parental XAB1; XAB1 IgG
B2: no binding (tested: 10 µg/ml) [1]; no binding (tested: 10 µg/ml) [2]; no binding (tested: 10 µg/ml) [3]. For the same binder, the binding result [4] was “no binding (tested: 10 µg/ml)”, the “IC50, hu-GRO-alpha secretion by BJ cells; stimulus IL-17A (30 pM) + TNF-α (6 pM)” value [5] was 0.72 nM and the “IC50, hu-GRO-alpha secretion by BJ cells; stimulus IL-17A/F (300 pM) + TNF-α (6 pM)” value [6] was 6.22 nM. The “IC50, hu-GRO-alpha secretion by BJ cells; stimulus IL-17F (10 nM) + TNF-α (6 pM)” value [7] was over 3 µM, the binding result [8] was “no binding (tested: 1 µg/ml)” and the binding result [9] was “no binding (tested: 1 µg/ml)”. For the same binder, the binding result [10] was “no binding (tested: 1 µg/ml)”, the binding result [11] was “no binding (tested: 1 µg/ml)” and the IC50 [12] was 301 nM. For the same binder, the “IC50, huIL-6 secretion by BJ cells; stimulus rhuIL-17A (0.5 nM)” value [13] was 4.97 nM.
